In patent US8357515:

Test system: LAP-MMP IL-4

Sequence of MMP-1, recombinant (P03956 100-469): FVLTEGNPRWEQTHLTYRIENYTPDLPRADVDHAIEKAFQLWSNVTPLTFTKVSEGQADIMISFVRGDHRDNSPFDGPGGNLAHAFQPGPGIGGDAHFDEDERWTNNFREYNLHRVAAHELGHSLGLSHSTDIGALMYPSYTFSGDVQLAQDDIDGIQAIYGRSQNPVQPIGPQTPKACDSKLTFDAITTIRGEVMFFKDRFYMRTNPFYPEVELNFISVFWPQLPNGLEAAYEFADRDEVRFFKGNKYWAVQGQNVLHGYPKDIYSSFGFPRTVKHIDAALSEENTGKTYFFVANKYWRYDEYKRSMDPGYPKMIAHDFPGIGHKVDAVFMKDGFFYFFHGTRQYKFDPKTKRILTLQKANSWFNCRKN

MMP-1, recombinant
cleavage of the fusion protein in 293T supernatant after overnight incubation at 37 C, Western blot probed with anti-IL-4 antibody: LAP-MMP IL-4 is only cleaved by MMP-1
